Reference: PMC6265327, “Structure of DNA-CMG-Pol epsilon elucidates the roles of the non-catalytic polymerase modules in the eukaryotic replisome” (Nature Communications, 2018)

B1: Dpb2, subunit of the CBP-tagged Pol epsilon complexes (deltacat and exo-) (natural protein, yeast (strains based on W303), UniProt P24482 1-689, looked up)
chain: MFGSGNVLPVKIQPPLLRPLAYRVLSRKYGLSIKSDGLSALAEFVGTNIGANWRQGPATIKFLEQFAAVWKQQERGLFIDQSGVKEVIQEMKEREKVEWSHEHPIQHEENILGRTDDDENNSDDEMPIAADSSLQNVSLSSPMRQPTERDEYKQPFKPESSKALDWRDYFKVINASQQQRFSYNPHKMQFIFVPNKKQNGLGGIAGFLPDIEDKVQMFLTRYYLTNDRVMRNENFQNSDMFNPLSSMVSLQNELSNTNRQQQSSSMSITPIKNLLGRDAQNFLLLGLLNKNFKGNWSLEDPSGSVEIDISQTIPTQGHYYVPGCMVLVEGIYYSVGNKFHVTSMTLPPGERREITLETIGNLDLLGIHGISNNNFIARLDKDLKIRLHLLEKELTDHKFVILGANLFLDDLKIMTALSKILQKLNDDPPTLLIWQGSFTSVPVFASMSSRNISSSTQFKNNFDALATLLSRFDNLTENTTMIFIPGPNDLWGSMVSLGASGTLPQDPIPSAFTKKINKVCKNVVWSSNPTRIAYLSQEIVIFRDDLSGRFKRHRLEFPFNESEDVYTENDNMMSKDTDIVPIDELVKEPDQLPQKVQETRKLVKTILDQGHLSPFLDSLRPISWDLDHTLTLCPIPSTMVLCDTTSAQFDLTYNGCKVINPGSFIHNRRARYMEYVPSSKKTIQEEIYI
notes: Dpb2, second largest subunit of yeast Pol epsilon; The complexes carry a CBP tag; The N-terminal domain is not seen in the deltacat map; also called NTD-Dpb2; CTD-Dpb2; source: yeast overexpression strain, galactose-induced; purified as part of Pol epsilon deltacat or exo- (calmodulin beads, Mono Q, gel filtration)

Tests used:
Assay in all cases: cryo-EM structure; 250 nM CMG bound to a desthiobiotin-labelled pre-formed DNA fork on streptavidin beads with 2 mM ATPgammaS, then 80 nM Pol epsilon exo-, 30 °C, eluted with biotin; no crosslinker; 4.9 Å
Settings in all cases: both partners purified
[1] = target: T1, Mcm3, subunit of the purified CMG (yeast (strains based on W303), UniProt P24279 1-971)
T1 construct: Mcm3, subunit of yeast CMG; The Mcm3 chain of m4; source: yeast overexpression strain yJCZ3, purified as part of CMG

[2] = target: T2, Mcm5, subunit of the purified CMG (yeast (strains based on W303), UniProt P29496 1-775)
T2 construct: Mcm5, subunit of yeast CMG; The Mcm5 chain of m4; source: yeast overexpression strain yJCZ3, purified as part of CMG
T2 sequence: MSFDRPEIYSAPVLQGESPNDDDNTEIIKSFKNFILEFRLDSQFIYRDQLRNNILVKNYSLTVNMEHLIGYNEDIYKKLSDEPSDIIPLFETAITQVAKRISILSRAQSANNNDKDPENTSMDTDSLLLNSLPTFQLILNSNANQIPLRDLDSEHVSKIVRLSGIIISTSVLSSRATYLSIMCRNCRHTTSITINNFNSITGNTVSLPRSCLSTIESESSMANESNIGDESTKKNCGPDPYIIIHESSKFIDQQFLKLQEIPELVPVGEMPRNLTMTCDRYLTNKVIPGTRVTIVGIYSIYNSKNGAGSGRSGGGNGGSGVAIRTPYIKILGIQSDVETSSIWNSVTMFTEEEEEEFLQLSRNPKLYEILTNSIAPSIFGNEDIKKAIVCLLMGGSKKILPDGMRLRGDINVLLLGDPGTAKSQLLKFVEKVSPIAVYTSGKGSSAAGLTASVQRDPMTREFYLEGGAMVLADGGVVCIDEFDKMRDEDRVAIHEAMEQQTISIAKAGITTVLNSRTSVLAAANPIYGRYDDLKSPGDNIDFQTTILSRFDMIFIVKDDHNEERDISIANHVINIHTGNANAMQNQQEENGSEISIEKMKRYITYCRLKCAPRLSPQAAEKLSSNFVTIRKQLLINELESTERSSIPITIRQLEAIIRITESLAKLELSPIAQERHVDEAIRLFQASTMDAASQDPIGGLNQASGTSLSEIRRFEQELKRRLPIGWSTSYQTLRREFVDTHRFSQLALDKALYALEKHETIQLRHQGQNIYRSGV

[3] = target: B1

T1 sequence (P24279 whole entry): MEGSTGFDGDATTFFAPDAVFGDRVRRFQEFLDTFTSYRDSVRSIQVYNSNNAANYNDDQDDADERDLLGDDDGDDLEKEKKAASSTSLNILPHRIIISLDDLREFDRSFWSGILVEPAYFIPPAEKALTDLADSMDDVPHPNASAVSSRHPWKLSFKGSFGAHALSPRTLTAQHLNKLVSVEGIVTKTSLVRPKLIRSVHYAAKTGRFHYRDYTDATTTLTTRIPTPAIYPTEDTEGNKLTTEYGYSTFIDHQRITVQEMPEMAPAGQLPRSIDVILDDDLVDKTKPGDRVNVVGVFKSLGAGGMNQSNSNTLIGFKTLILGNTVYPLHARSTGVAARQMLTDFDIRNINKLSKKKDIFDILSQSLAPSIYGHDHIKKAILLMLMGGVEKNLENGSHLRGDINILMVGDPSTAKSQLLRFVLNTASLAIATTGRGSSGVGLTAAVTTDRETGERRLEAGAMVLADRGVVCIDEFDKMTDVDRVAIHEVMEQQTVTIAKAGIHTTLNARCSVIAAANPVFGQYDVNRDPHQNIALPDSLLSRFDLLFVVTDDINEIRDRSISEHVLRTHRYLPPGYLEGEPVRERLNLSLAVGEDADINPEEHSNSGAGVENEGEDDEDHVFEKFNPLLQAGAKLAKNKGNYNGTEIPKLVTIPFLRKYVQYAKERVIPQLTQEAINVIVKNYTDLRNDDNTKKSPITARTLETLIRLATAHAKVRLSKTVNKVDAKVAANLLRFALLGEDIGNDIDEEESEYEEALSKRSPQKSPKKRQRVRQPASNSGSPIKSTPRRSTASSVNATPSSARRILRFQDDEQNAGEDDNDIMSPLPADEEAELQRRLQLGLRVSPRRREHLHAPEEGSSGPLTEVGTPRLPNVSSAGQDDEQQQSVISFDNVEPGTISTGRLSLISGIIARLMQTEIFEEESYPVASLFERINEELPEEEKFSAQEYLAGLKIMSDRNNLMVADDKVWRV

## B1
[1]
  binding result: binds
[2]
  binding result: binds

B2: Psf1, GINS subunit of the purified CMG (natural protein, yeast (strains based on W303))
chain: MYGDLGNKLVLEAKRTKQLYARSNQDVNLPMYHEDIIRNILKEVSNLRKNTEYLKEQQQLGMLDDKVAKCQYFVTLLCMERNKRCLLAYQRLRTDILDSMAWNNNGLDLMSSITFSQQDTNNLSHQEQEYLKEYCDLITDLKSGDLVDIDLSGSLVPPSDVFIDVRVLKDAGEIQTEYGVFNLIKDSQFFVRQSDVERLIQQGYLQKI
notes: Psf1, GINS subunit of yeast CMG; The Psf1 chain of m4; source: yeast overexpression strain yJCZ3, purified as part of CMG
[3]
  binding result: binds
